The source of these data is patent US20200009238A1 (UNIVERSITETET I OSLO, published 2020).

The target of data set [1] is HLA-A2 single-chain trimer (SCT) combined with MART-1 peptide. The data set is described as follows: flow cytometry; SupT1 cells expressing SCT-MART-1, 10 nM sTcR 15 min at RT, anti-His-PE.
In data set [2] the target is MART-1 peptide on HLA-A2, on HLA-A2 positive SupT1 cells expressing Ii L17A/RRP MART-1. The data set is described as follows: flow cytometry; HLA-A2 positive SupT1 cells expressing Ii L17A/RRP MART-1, 10 nM sTcR, anti-His-PE.
In data set [3] the target is MART-1 peptide on HLA-A2, on HLA-A2 positive SupT1 cells expressing Iiwt MART-1. The data set is described as follows: flow cytometry; HLA-A2 positive SupT1 cells expressing Iiwt MART-1, 10 nM sTcR, anti-His-PE.
Data set [4] concerns the molecule itself. The data set is described as follows: self-association (trimer); western blot of boiled and non-boiled whole cell lysates of transfected Hek cells, anti Ii M-B741. The method, then:
Hek cells were transfected as indicated. After 24 hours, whole cell lysates (WCL) were subjected to 4-20% SDS-PAGE Tris-HEPES-SDS gels, transferred to PVDF membranes and probed with anti Ii antibody, M-B741. The samples were either boiled or non-boiled before gel loading. Ii trimers and monomers are shown. Detection of actin in the WCL was used as loading control using anti-actin antibodies.
In order to function as a chaperone for MHC II antigen presentation, Ii depends on two important features; the ability to trimerize[17] and to traffic to the endosomal pathway. The trimerization of IiRRP/L17A was analyzed by western blotting (WB).

With “soluble form of DMF5 (MART-1 specific TcR)”, the MFI in data set [1] amounted to 37000 MFI; in data set [2], 194 MFI; in data set [3], 105 MFI. Besides, the percent of cells stained is 100% in data set [1], 21% in data set [2] and 2% in data set [3].

B1: human invariant chain Iip33 wild type (other)
chain: MDDQRDLISNNEQLPMLGRRPGAPESKCSRGALYTGFSILVTLLLAGQATTAYFLYQQQGRLDKLTVTSQNLQLENLRMKLPKPPKPVSKMRMATPLLMQALPMGALPQGPMQNATKYGNMTEDHVMHLLQNADPLKVYPPLKGSFPENLRHLKNTMETIDWKVFESWMHHWLLFEMSRHSLEQKPTDAPPKESLELEDPSSGLGVTKQDLGPVPM
notes: Full length protein expressed in transfected Hek cells and analysed in whole cell lysates; also called Iiwt; Ii wt
Consider B1, for which, in data set [4], the binding result is “binds”.

B2: invariant chain double leucine mutant Ii L7A/L17A (other)
chain: MDDQRDAISNNEQLPMAGRRPGAPESKCSRGALYTGFSILVTLLLAGQATTAYFLYQQQGRLDKLTVTSQNLQLENLRMKLPKPPKPVSKMRMATPLLMQALPMGALPQGPMQNATKYGNMTEDHVMHLLQNADPLKVYPPLKGSFPENLRHLKNTMETIDWKVFESWMHHWLLFEMSRHSLEQKPTDAPPKESLELEDPSSGLGVTKQDLGPVPM
notes: Expressed in Hek cells and analysed in lysates
For the molecule B2, in data set [4], the binding result is listed as “binds”.

B3: invariant chain trafficking mutant Ii RRP/L17A (other)
chain: MDDRRPLISNNEQLPMAGRRPGAPESKCSRGALYTGFSILVTLLLAGQATTAYFLYQQQGRLDKLTVTSQNLQLENLRMKLPKPPKPVSKMRMATPLLMQALPMGALPQGPMQNATKYGNMTEDHVMHLLQNADPLKVYPPLKGSFPENLRHLKNTMETIDWKVFESWMHHWLLFEMSRHSLEQKPTDAPPKESLELEDPSSGLGVTKQDLGPVPM
notes: Expressed in Hek cells and analysed in lysates; also called IiL17A/RRP; Ii L17A RRP
Turning to B3, the binding result in data set [4] is given as “binds”.
